The values below come from paper PMC6515519, “Structure–Activity Relationships of the Tetrapeptide Ac-His-Arg-(pI)DPhe-Tic-NH2 at the Mouse Melanocortin Receptors: Modification at the (pI)DPhe Position Leads to mMC3R Versus mMC4R Selective Ligands” (Molecules, 2019).

One assay has as its system MC4R. As to conditions: previous studies; cited from earlier work.
Another assay relates to MC3R. As to conditions: previous studies; cited from earlier work.
Assay [1] has as its target mouse melanocortin-1 receptor (mouse) (UniProt Q01727).
Assay [2] has as its target mouse melanocortin-4 receptor (mouse) (UniProt P56450).
Assay [3] has as its target mouse melanocortin-3 receptor (mouse) (UniProt P33033).
Assay [4] addresses mouse melanocortin-5 receptor (mouse) (UniProt P41149).

mouse melanocortin-4 receptor (mouse), sequence (P56450 whole entry): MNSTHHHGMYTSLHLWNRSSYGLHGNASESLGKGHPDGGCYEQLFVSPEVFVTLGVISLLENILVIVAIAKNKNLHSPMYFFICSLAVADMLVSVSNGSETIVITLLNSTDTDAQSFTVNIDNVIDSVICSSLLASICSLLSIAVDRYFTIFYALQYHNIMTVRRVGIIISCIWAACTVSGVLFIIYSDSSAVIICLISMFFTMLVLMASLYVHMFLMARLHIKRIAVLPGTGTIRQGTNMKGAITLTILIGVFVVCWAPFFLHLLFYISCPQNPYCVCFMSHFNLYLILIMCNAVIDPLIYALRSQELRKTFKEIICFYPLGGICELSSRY
mouse melanocortin-5 receptor (mouse), sequence (P41149 whole entry): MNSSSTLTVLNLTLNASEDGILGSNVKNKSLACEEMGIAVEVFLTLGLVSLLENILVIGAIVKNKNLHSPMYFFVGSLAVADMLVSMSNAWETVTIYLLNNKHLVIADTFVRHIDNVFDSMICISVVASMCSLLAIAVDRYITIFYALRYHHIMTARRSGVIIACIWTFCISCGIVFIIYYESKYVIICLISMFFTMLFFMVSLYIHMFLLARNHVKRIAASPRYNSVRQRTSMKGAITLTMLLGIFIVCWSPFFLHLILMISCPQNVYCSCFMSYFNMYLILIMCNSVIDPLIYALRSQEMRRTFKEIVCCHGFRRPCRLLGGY
mouse melanocortin-3 receptor (mouse), sequence (P33033 whole entry): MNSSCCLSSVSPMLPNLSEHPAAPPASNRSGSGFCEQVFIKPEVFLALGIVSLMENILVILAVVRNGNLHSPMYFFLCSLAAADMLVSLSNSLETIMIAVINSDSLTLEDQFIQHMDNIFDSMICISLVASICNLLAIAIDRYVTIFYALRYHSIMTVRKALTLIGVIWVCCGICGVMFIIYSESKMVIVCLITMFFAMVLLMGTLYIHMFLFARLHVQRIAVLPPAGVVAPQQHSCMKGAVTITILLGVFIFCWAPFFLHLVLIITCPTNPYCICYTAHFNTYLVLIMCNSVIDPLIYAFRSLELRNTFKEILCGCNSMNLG
mouse melanocortin-1 receptor (mouse), sequence (Q01727 whole entry): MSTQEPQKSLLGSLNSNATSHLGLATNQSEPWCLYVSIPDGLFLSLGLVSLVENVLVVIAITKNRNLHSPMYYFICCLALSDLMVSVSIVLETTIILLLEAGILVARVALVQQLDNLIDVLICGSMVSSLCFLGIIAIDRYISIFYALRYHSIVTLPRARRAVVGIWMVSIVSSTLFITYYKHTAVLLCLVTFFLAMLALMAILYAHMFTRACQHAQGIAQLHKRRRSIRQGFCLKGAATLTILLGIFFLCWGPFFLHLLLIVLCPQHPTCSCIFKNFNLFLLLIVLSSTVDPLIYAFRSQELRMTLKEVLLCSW

Ac-His-(pI)DPhe-Arg-Trp-NH2: the “MC4R agonist activity” value with MC4R was “full agonist”. Also, the “MC3R activity” value with MC3R is recorded as “partial agonist with antagonist activity”.

Regarding NDP-MSH (peptide), the agonist EC50, cAMP AlphaScreen assay in HEK293 cells stably expressing mMC1R in assay [1] is 0.009 nM. In assay [2], this substance came in with an agonist EC50, β-galactosidase cAMP reporter assay in HEK293 cells stably expressing mMC4R of 0.32 nM. Also, in assay [3], the agonist EC50, β-galactosidase cAMP reporter assay in HEK293 cells stably expressing mMC3R came to 0.52 nM. In assay [4], the agonist EC50, β-galactosidase cAMP reporter assay in HEK293 cells stably expressing mMC5R was found to be 3.4 nM.
